Results published in the supplement of paper PMC10065799, “High-throughput profiling of sequence recognition by tyrosine kinases and SH2 domains using bacterial peptide display” (eLife, 2023).

Tests used:
Fes = Fes (UniProt P07332); assay: phosphorylation enrichment, bacterial display (enrichment ratio); higher = better substrate or ligand; peptides without Tyr show the background
EPHB2 = EPHB2 (UniProt P29323); assay: as above
c-Src = assay: as above
Hck = Hck (UniProt P08631); assay: as above
Hck, sequence (P08631 whole entry, looked up): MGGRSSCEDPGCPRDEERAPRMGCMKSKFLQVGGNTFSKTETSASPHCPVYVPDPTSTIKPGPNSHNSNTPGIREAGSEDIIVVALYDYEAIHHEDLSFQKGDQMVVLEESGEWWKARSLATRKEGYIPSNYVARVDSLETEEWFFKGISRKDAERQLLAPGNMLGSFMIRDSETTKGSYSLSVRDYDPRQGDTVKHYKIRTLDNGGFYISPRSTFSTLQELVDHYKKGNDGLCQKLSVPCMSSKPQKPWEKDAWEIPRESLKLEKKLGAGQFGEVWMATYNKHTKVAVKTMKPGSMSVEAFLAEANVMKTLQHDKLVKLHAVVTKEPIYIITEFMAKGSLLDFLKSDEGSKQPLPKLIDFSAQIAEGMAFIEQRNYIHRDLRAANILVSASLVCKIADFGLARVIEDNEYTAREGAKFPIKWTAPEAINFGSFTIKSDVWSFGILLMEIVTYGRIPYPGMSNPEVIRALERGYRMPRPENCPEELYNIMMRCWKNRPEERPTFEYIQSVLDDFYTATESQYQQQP

AncSZ = assay: as above
FGFR1 = FGFR1 (UniProt P11362); assay: as above
EPHB1 = EPHB1 (UniProt P54762); assay: as above
EPHB1, sequence (P54762 whole entry, looked up): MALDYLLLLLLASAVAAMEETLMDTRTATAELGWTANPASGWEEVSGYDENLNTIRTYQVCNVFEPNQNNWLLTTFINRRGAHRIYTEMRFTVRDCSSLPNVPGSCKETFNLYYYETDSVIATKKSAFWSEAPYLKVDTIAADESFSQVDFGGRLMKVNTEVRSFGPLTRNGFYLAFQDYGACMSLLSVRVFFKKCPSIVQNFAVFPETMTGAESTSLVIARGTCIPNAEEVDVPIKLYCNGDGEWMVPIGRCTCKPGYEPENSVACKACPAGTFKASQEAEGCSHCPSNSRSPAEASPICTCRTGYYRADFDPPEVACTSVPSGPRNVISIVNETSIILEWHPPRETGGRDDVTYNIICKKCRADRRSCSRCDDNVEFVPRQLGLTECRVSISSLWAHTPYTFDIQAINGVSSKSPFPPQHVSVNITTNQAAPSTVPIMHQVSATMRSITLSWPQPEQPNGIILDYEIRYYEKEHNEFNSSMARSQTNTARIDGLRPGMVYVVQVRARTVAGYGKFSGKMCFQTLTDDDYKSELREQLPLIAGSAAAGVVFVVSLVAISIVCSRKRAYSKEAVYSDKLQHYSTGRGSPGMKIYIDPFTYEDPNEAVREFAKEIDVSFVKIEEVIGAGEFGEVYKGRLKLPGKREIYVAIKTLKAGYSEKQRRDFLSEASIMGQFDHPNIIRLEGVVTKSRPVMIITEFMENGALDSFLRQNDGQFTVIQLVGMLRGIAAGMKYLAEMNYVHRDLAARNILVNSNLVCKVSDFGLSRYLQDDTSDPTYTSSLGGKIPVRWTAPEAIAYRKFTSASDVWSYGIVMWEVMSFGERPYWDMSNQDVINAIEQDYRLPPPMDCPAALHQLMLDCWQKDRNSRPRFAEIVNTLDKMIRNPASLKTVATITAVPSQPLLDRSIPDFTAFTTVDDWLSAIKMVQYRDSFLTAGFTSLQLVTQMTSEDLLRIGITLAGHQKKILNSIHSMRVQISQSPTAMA

MERTK = MERTK (UniProt Q12866); assay: as above
Jak2 = Jak2 (UniProt O60674); assay: as above
Jak2, sequence (O60674 whole entry, looked up): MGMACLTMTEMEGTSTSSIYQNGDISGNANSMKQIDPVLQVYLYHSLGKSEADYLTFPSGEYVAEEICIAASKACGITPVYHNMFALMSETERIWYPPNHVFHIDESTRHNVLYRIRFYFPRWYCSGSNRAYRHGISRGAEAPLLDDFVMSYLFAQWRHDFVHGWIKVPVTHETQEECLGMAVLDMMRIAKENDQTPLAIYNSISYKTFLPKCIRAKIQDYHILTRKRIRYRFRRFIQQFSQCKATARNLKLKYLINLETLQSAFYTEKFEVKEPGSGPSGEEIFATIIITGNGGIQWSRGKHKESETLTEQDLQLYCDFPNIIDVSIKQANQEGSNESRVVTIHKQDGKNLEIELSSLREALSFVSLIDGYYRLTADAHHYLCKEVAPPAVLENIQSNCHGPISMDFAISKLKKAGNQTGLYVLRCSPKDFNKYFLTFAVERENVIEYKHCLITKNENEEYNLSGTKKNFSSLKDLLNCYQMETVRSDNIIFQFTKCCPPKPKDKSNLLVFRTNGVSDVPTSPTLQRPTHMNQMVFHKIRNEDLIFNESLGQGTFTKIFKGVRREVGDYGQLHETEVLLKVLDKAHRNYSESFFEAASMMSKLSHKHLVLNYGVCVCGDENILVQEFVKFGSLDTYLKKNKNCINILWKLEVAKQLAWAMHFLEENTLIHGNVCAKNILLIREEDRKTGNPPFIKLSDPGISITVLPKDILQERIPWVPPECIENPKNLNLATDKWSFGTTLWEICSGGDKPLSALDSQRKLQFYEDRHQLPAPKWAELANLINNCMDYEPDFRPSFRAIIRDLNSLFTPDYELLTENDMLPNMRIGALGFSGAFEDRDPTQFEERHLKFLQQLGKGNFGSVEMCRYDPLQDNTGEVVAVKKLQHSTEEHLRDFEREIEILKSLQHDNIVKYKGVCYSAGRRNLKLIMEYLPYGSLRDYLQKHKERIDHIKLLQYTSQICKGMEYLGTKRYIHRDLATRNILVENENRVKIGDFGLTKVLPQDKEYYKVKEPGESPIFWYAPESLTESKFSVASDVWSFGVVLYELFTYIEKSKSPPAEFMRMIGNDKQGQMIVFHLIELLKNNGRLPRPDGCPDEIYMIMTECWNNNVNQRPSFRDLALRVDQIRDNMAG

FGFR3 = FGFR3 (UniProt P22607); assay: as above
FGFR3, sequence (P22607 whole entry, looked up): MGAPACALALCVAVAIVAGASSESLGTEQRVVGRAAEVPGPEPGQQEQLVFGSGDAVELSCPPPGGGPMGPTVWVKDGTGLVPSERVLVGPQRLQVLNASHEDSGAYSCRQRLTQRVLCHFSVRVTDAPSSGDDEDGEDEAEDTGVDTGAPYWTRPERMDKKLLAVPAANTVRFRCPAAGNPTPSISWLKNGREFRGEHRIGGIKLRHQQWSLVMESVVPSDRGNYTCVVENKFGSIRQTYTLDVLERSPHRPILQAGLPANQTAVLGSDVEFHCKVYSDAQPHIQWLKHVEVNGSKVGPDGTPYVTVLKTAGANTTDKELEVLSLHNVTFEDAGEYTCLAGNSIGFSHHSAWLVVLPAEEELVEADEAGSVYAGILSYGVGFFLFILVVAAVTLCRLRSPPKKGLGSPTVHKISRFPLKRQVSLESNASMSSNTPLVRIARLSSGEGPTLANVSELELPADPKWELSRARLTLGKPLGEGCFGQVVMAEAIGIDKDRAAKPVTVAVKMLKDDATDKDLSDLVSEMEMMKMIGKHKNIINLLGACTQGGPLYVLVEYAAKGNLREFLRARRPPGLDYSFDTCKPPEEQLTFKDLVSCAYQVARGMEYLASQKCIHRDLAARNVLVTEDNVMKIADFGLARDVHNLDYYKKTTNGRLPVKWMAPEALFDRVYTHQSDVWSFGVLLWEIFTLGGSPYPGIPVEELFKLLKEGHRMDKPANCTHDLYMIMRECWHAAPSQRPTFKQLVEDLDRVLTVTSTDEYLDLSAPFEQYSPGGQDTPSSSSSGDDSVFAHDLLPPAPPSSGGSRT

Fyn = Fyn (UniProt P06241); assay: as above
Fyn, sequence (P06241 whole entry, looked up): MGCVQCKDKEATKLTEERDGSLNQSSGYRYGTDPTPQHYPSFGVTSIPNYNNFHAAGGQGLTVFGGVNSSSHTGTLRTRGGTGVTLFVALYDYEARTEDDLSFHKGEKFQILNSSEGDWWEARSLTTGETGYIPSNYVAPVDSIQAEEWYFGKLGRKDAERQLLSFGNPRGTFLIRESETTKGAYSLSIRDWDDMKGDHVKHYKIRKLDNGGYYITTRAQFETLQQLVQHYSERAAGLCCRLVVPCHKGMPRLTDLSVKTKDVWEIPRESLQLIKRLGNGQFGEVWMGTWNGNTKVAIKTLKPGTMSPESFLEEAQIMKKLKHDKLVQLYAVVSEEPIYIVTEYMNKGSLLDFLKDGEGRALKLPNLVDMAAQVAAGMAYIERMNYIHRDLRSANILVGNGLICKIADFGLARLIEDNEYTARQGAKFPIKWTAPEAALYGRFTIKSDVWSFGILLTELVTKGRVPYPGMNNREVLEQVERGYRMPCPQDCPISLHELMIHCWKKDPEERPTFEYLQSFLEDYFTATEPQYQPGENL

c-Abl (mouse) = assay: as above
Fer (mouse) = assay: as above
c-Src SH2 = assay: SH2 binding enrichment of the phosphorylated peptide, bacterial display (enrichment ratio); higher = better substrate or ligand; peptides without Tyr show the background
Grb2 SH2 = Grb2 SH2 (UniProt P62993); assay: as above
Grb2 SH2, sequence (P62993 whole entry, looked up): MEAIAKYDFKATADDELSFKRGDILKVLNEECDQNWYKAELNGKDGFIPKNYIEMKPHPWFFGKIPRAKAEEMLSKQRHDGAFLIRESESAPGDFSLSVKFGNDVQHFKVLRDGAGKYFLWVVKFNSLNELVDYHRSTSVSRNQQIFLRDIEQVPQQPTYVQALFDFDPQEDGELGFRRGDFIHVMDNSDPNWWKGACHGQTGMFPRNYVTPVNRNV

SHP2-C SH2 = assay: as above
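Throughout, for SH2 binding enrichment of the phosphorylated peptide, bacterial display: peptide library displayed on the E. coli surface as eCPX fusions, selected cells deep-sequenced, score is each peptide's frequency after selection divided by its frequency in the input.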
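Throughout, for phosphorylation enrichment, bacterial display: 11-residue human phosphosite peptides and single-mutation variants displayed on the E. coli surface, counted by deep sequencing, each peptide's frequency after selection divided by its frequency in the unselected input library; frequency after pTyr selection over input frequency; kinase dosed for 20-30% of maximal phosphorylation in three min.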

Fes, sequence (P07332 whole entry, looked up): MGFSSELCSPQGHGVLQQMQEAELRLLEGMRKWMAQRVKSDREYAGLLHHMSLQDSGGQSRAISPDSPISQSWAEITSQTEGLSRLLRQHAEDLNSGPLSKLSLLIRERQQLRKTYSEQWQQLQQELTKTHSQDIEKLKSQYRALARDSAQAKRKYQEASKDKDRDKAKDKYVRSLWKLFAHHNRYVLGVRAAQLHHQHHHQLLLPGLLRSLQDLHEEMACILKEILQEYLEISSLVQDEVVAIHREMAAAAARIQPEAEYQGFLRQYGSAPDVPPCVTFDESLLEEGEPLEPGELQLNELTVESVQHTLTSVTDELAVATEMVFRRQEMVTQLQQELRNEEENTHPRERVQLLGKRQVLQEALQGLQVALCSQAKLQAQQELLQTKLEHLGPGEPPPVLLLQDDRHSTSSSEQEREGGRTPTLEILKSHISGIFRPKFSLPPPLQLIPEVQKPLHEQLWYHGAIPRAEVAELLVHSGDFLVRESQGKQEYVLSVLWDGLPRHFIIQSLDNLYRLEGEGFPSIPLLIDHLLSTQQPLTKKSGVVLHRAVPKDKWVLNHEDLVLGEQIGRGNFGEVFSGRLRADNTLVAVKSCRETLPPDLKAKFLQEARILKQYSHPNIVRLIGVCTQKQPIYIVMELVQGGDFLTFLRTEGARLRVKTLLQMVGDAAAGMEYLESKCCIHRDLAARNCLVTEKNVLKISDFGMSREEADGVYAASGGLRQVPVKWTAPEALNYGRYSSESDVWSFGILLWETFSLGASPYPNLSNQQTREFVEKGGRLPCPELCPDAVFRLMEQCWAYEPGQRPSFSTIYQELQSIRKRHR

| Sequence | phosphorylation enrichment (Fes) | phosphorylation enrichment (EPHB2) | phosphorylation enrichment (c-Src) | phosphorylation enrichment (Hck) | phosphorylation enrichment (AncSZ) | phosphorylation enrichment (FGFR1) | phosphorylation enrichment (EPHB1) | phosphorylation enrichment (MERTK) | phosphorylation enrichment (Jak2) | phosphorylation enrichment (FGFR3) | phosphorylation enrichment (Fyn) | phosphorylation enrichment (c-Abl (mouse)) | phosphorylation enrichment (Fer (mouse)) | SH2 binding enrichment (c-Src SH2) | SH2 binding enrichment (Grb2 SH2) | SH2 binding enrichment (SHP2-C SH2) |
| --- | --- | --- | --- | --- | --- | --- | --- | --- | --- | --- | --- | --- | --- | --- | --- | --- |
| REEIKYMLWLS [OTC_Y55_G50R] | 1.58 | 0.992 | 0.474 | 0.786 | 1.23 | 0.961 | 0.697 | 0.734 | 1.15 | 1.4 | 0.661 | 0.944 | 0.955 | 0.502 | 0.642 | 0.775 |
| PPGRSYSPCDF [TNS1_Y793_Y796C_YF] | 1.16 | 0.858 | 0.649 | 0.639 | 1.01 | 0.716 | 0.895 | 0.676 | 0.679 | 0.816 | 0.431 | 0.902 | 0.689 | 0.696 | 1.25 | 0.839 |
| QQLDKYQELLD [LMNA_Y359_E358K] | 0.995 | 0.806 | 0.453 | 0.441 | 1.26 | 0.715 | 0.889 | 0.446 | 1.33 | 0.783 | 0.485 | 0.789 | 0.452 | 1.31 | 0.958 | 0.59 |
| PDKRIYQFTAA [SKAP2_Y197] | 0.708 | 0.553 | 0.729 | 0.578 | 0.73 | 0.476 | 0.779 | 0.999 | 0.651 | 0.497 | 0.566 | 0.47 | 0.769 | 0.645 | 0.82 | 0.57 |
| FAKSVYWENTL [NUP107_Y296_YF] | 1.32 | 0.531 | 0.802 | 0.857 | 0.899 | 0.506 | 0.554 | 0.588 | 0.987 | 0.752 | 0.768 | 0.638 | 0.418 | 1.15 | 1.08 | 0.887 |
| LLREWYLQDPF [SIX3_Y225_YF] | 1.73 | 0.765 | 0.788 | 0.509 | 1.43 | 0.941 | 0.557 | 0.567 | 1.52 | 0.784 | 0.564 | 1.15 | 0.661 | 0.978 | 1.42 | 2.31 |
| TEALYYTDDPA [ADPRS_Y75_T79P] | 1.82 | 0.882 | 2.59 | 1.79 | 1.97 | 5.2 | 1.2 | 6.2 | 1.06 | 5.62 | 1.91 | 1.09 | 1.92 | 0.797 | 0.513 | 0.48 |
| LNCDRYSVGLL [PDE6A_Y275] | 1.59 | 1.51 | 0.823 | 0.889 | 1.16 | 0.712 | 0.961 | 0.709 | 1.2 | 1.2 | 0.734 | 0.929 | 0.898 | 0.588 | 0.873 | 0.527 |
| NSRYTCKLEVK [USH2A_Y3747_Y3747C] | 1.45 | 0.57 | 0.441 | 0.471 | 1.21 | 0.471 | 0.678 | 0.387 | 1.19 | 0.885 | 0.407 | 0.921 | 0.501 | 0.449 | 0.808 | 0.626 |
| IRTIDYRYTVS [IDS_Y497_W502S] | 1.13 | 0.666 | 0.385 | 0.532 | 0.789 | 0.593 | 0.437 | 0.411 | 0.713 | 0.601 | 0.558 | 0.46 | 0.45 | 0.69 | 0.73 | 0.823 |
| YQSKHYACIRQ [TIMP3_Y182] | 0.762 | 0.451 | 0.406 | 0.55 | 0.673 | 0.52 | 0.462 | 0.534 | 0.626 | 0.45 | 0.418 | 0.648 | 0.554 | 2.08 | 1.21 | 6.64 |
| ADKSAYLMGVN [MYH7_Y386_L390V] | 0.661 | 0.466 | 0.41 | 0.401 | 0.574 | 0.399 | 0.418 | 0.338 | 0.58 | 0.466 | 0.405 | 0.572 | 0.396 | 0.32 | 0.786 | 0.594 |
| ANVKWYRSGRE | 0.841 | 0.425 | 0.512 | 0.412 | 0.875 | 0.46 | 0.401 | 0.474 | 0.585 | 0.886 | 0.43 | 0.587 | 0.402 | 0.368 | 0.739 | 0.46 |
| RNFVRYVQGLK [VWF_Y1400] | 0.599 | 0.37 | 0.566 | 0.339 | 0.277 | 0.255 | 0.324 | 0.48 | 0.556 | 0.445 | 0.511 | 0.548 | 0.309 | 0.586 | 0.669 | 0.839 |
| WKEREYEVVRD [CPS1_Y634_I632R] | 1.12 | 2.29 | 0.506 | 0.586 | 1.26 | 0.554 | 1.36 | 0.478 | 0.949 | 0.684 | 0.599 | 0.594 | 0.573 | 6.04 | 0.954 | 0.67 |
| PRDSGYSYETI [MAP1B_Y1921_S1917R] | 1.29 | 0.745 | 0.467 | 0.405 | 0.917 | 0.679 | 0.448 | 0.55 | 0.781 | 0.898 | 0.354 | 0.542 | 0.777 | 12.7 | 0.774 | 0.564 |
| KAIMTYVPSFF [ACTN4_Y260_S262P_YF] | 0.838 | 0.531 | 0.46 | 0.497 | 0.72 | 0.445 | 0.61 | 0.487 | 0.678 | 0.542 | 0.499 | 0.647 | 0.438 | 0.97 | 0.97 | 0.836 |

| Sequence | phosphorylation enrichment (Fes) | phosphorylation enrichment (EPHB2) | phosphorylation enrichment (c-Src) | phosphorylation enrichment (Hck) | phosphorylation enrichment (AncSZ) | phosphorylation enrichment (FGFR1) | phosphorylation enrichment (EPHB1) | phosphorylation enrichment (MERTK) | phosphorylation enrichment (Jak2) | phosphorylation enrichment (FGFR3) | phosphorylation enrichment (Fyn) | phosphorylation enrichment (c-Abl (mouse)) | phosphorylation enrichment (Fer (mouse)) | SH2 binding enrichment (c-Src SH2) | SH2 binding enrichment (Grb2 SH2) | SH2 binding enrichment (SHP2-C SH2) |
| --- | --- | --- | --- | --- | --- | --- | --- | --- | --- | --- | --- | --- | --- | --- | --- | --- |
| WQQQSYLFSGI [CTNNB1_Y30_D32Y_YF] | 0.928 | 0.57 | 0.467 | 0.44 | 0.977 | 0.473 | 0.461 | 0.414 | 0.972 | 0.57 | 0.454 | 0.765 | 0.398 | 0.641 | 1.02 | 0.882 |
| SSPVLYLSPET [TJP1_Y931_P930L] | 0.833 | 0.815 | 0.469 | 0.626 | 1.21 | 0.663 | 1.14 | 0.782 | 1.02 | 0.713 | 0.534 | 1.61 | 0.459 | 0.442 | 0.882 | 0.901 |
| ISSLRYKLLEE [TRPC6_Y896_E897K] | 0.986 | 0.476 | 0.407 | 0.47 | 0.786 | 0.426 | 0.514 | 0.347 | 0.64 | 0.549 | 0.503 | 0.603 | 0.38 | 0.513 | 0.742 | 0.65 |
| MCITQYERESQ [PRNP_Y218] | 0.895 | 0.495 | 0.394 | 0.447 | 0.837 | 0.491 | 0.419 | 0.485 | 0.654 | 0.557 | 0.496 | 0.648 | 0.453 | 0.591 | 0.935 | 0.632 |
| FRGFSYDDIPD [TMEM230_Y112_YF] | 1.44 | 0.71 | 0.485 | 0.609 | 1.35 | 0.474 | 0.739 | 0.565 | 1.39 | 0.737 | 0.438 | 0.895 | 0.405 | 7.24 | 0.882 | 0.595 |
| RMLRKYQELMS [KRT74_Y425_E424K] | 0.673 | 0.397 | 0.447 | 0.43 | 0.643 | 0.556 | 0.419 | 0.485 | 0.5 | 0.402 | 0.509 | 0.455 | 0.522 | 0.438 | 0.712 | 0.608 |
| FEGHSYSACTT [MMP9_Y241_R239H] | 1.1 | 0.524 | 0.59 | 0.486 | 0.95 | 0.533 | 0.617 | 0.562 | 1.03 | 0.656 | 0.512 | 1.34 | 0.644 | 2.25 | 0.869 | 0.642 |
| FDDIACIRKTL [PIK3CA_Y1021_Y1021C] | 1.03 | 0.629 | 0.378 | 0.448 | 0.911 | 0.497 | 0.603 | 0.386 | 0.787 | 0.756 | 0.374 | 0.661 | 0.424 | 0.51 | 0.668 | 0.471 |
| LSVEIHDRREY [ITGB7_Y753_Y753H] | 1.08 | 0.54 | 0.438 | 0.463 | 1.09 | 0.414 | 0.55 | 0.336 | 1.12 | 0.633 | 0.336 | 0.823 | 0.473 | 0.429 | 0.733 | 0.473 |
| CYSSEYHYVGG [CTSC_Y345_Y340C] | 1.1 | 5.91 | 2.02 | 2.29 | 4.45 | 13 | 5.54 | 4.76 | 1.77 | 9.68 | 1.57 | 2.79 | 1.26 | 2.04 | 0.884 | 0.943 |
| LKLIQYHLIQQ [AKAP4_Y554_T557I] | 1.67 | 0.737 | 0.582 | 0.659 | 1.2 | 0.687 | 0.95 | 0.774 | 1.4 | 0.924 | 0.553 | 1.16 | 0.544 | 2.22 | 1.51 | 4.15 |
| FPLAEYTEVKT [ALDH1A3_Y497_A493P_YF] | 0.968 | 0.575 | 0.528 | 0.54 | 1.34 | 0.671 | 0.685 | 0.4 | 1.01 | 0.82 | 0.502 | 0.709 | 0.516 | 1.87 | 0.884 | 0.841 |
| ADSLRYIFPKL [EIF2B3_Y92_YF] | 0.681 | 0.381 | 0.457 | 0.413 | 0.552 | 0.398 | 0.43 | 0.459 | 0.64 | 0.497 | 0.474 | 0.566 | 0.31 | 0.667 | 0.966 | 1.41 |
| ESDFPYSSSFE [SRPK2_Y427_T426P_YF] | 1.1 | 0.502 | 0.823 | 0.47 | 1.1 | 0.619 | 0.437 | 0.462 | 0.942 | 0.692 | 0.511 | 0.642 | 0.531 | 0.485 | 0.738 | 0.543 |
| ALLVFYAATIA [SLC20A2_Y187_P184L] | 1.13 | 0.565 | 0.455 | 0.513 | 0.934 | 0.445 | 0.648 | 0.429 | 1.04 | 0.672 | 0.44 | 0.871 | 0.501 | 0.633 | 0.803 | 0.969 |
| FPRAWYRRSIA [KIAA1109_Y4272] | 0.55 | 0.468 | 0.477 | 0.413 | 0.693 | 0.394 | 0.394 | 0.473 | 0.689 | 0.381 | 0.405 | 0.552 | 0.473 | 0.462 | 0.801 | 0.339 |
